The DeepSol protein solubility set

experiment: soluble on expression in E. coli; label from the status in PepcDB or PDB records

Sequence	soluble on expression in E. coli
SQNRVPSSRTVSYFVAKPSSSEMEKLQLGPEDSILRMERIRFADDIPICFEVASIPYSLVSQYGKSEITNSFYKTLEAKSGHKIGHSNQTISAVQASEQIAEYLEIKRGDAILRVRQVSYFENGLPFEYVRTQYAGSRFEFYLEK	soluble
SRDGSVAPKERINIRYVPATGDTQEDVELPLSMMVVGDFTARADETPIEERTPINIDKDNFNDVLEGMSPNVKVNVENRLSDEEGAQIGVDLTFQNMKDFSPEAIAKSVPELNSLLELREALVALKGPLGNVPAFRKKIASVLQDEEARKKLLDELSIG	not soluble
SRFADAVLDQYIGSIHSLCKDQHGCRFLQKQLDILGSKAADAIFEETKDYTVELMTDSFGNYLIQKLLEEVTTEQRIVLTKISSPHFVEISLNPHGTRALQKLIECIKTDEEAQIVVDSLRPYTVQLSKDLNGNHVIQKCLQRLKPENFQFIFDAISDSCIDIATHRHGCCVLQRCLDHGTTEQCDNLCDKLLALVDKLTLDPFGNYVVQYIITKEAEKNKYDYTHKIVHLLKPRAIELSIHKFGSNVIEKILKTAIVSEPMILEILNNGGETGIQSLLNDSYGNYVLQTALDISHKQNDYLYKRLSEIVAPLLVGPIRNTPHGKRIIGMLHLDS	soluble
SSALPRTLGELQLYRVLQRANLLSYYETFIQQGGDDVQQLCEAGEEEFLEIMALVGMATKPLHVRRLQKALREWATNPGLFSQPVPAVPVSSIPLFKISETAG	soluble
SSFVGENSGVKMGSEDWEKDEPQCCLEDPAVSPLEPGPSLPAMNFVHTSPKVKNLNPKKFSIHDQDHKVLVLDSGNLIAVPDKNYIRPEIFFALASSLSSASAEKGSPILLGVSKGEFCLYCDKDKGQSHPSLQLKKEKLMKLAAQKESARRPFIFYRAQVGSWNMLESAAHPGWFICTSCNCNEPVGVTDKFENRKHIEFSFQPVCKAEMSPSEVSD	soluble
SSSSSSPAIEPDTPDLICQLDNVQGMVDALTCVRWKRHQDALVELSEHGIVLIVEESGCLQAKVYLQRELFTKYEYGAQGRPRFGISLGLLVDCLNTFSSPGHSNTIEIKYPGPDMELLLKSVDTLNSCIYSEIRTRIPETVTWDYNFEQAGIAPLTFTVKSAALKEAIDDLEWPGSSVQISLQKEPPCVIFRGEGHGDLQIDFMYYANTDLLLAFHCDTEVSYGYKYKFLKATTANIPGNVVRENRRSKLTIGRGGMLKVQHLVSVSKALAPQVESAGYQPPSRIAYIEFFVKPEEPAD	soluble
STGSKQRSQNRSKTPKNQEALRMANVAENSSSDQRQACKKHELYVSFRDLGWQDWIIAPEGYAAYYCEGECAFPLNSYMNATNHAIVQTLVHFINPETVPKPCCAPTQLNAISVLYFDDSSNVILKKYRNMVVRACGCH	soluble
STNLRAWLYQGDHCLESRQSEAGVTRLNGKSPAAVLAEVTTDWREENTPVVMAGMVGSNVGWKVAPYLSVPARFSSIGEQLTSVGDNIWIIPGLCVSHDDNHNVMRGEETQLIGARALAPSSLYVMPGTHCKWVQADSQQINDFRTVMTGELHHLLLNHSLIGAGLPPQENSADAFAAGLERGLNAPAILPQLFEVRASHVLGTLPREQVSEFLSGLLIGAEVASMRDYVTHQHAITLVAGTSLTARYQQAFQAMGCDVAAVAGDTAFQAGIRSIAHAVAN	not soluble
STSGANSSGSYLPSEIRSSKIDDNYLKELNEDLKLRKQELLEMLKPLEDKNNLLFQRLMSNLEEKQRSLQIMRQIMAGKGCEESSVMELLKEAEEMKQNLERKNKMLRKEMEMLWNKTFEAEELSDQQKAPQTKNKADLQDGKEKQQRKMEWVKYQEQNNILQNDFHGKVIELRIEALKNYQKANDLKLSLYLQQNFEPMQAFLNLPGSQGIRIV	soluble
STVTQKNLFPYGDYLNSSQLHMEPDEVDTLREGEDPADRMHPYLAIYDLQPLKAHPLVFAPGVPVIAQVVGTERYTSGSKVGTCTLYSVRLTHGDFTWTTKKKFRHFQELHRDLQRHKVLMSLLPLARFAVTHSPAREAAAEDIPSLPRGGSEGSARHTASKQKYLENYLNRLLTMSFYRNYHAMTEFLEVSQLSFIPDLGSKGLEGVIRKRSGGHRVPGFTFCGRDQVCYRWSKRWLVVKDSFLLYMRPETGAISFVQLFDPGFEVQVGKRSTETRYGVRIDTSHRSLILKCSSYRQARWWGQEITELAQGSGRDFLQLHQHDSYAPPRPGTLARW	soluble
SVGGGGSGGGLLENANPLIYERSGERPVTAGEEDEEVPDSIDAREIFDLIRSINDPEHPLTLEELNVVEQVRIQVSDPESTVAVAFTPTIPHCSMATLIGLSIKVKLLRSLPQRFKMDVHITPGTHASEHAVNKQLADKERVAAALENTHLLEVVNQCLSARS	soluble
SYELTQPPSVSVAPGKTARITCGGNNIGSKSVHWYQQKPGQAPVLVVYDDSDRPSGIPERFSGSNSGNTATLTISRVEAGDEADYYCQVWDSSSDYVFGTGTKVTVLGQPKANPTVTLFPPSSEEFQANKATLVCLISDFYPGAVTVAWKADGSPVKAGVETTKPSKQSNNKYAASSYLSLTPEQWKSHRSYSCQVTHEGSTVEKTVAPTECS	soluble
SYYHHHHHHHEGVRTMEEECRVLSIQSHVIRGYVGNRAATFPLQVLGFEIDAVNSVQFSNHTGYAHWKGQVLNSDELQELYEGLRLNNMNKYDYVLTGYTRDKSFLAMVVDIVQELKQQNPRLVYVCDPVLGDKWDGEGSMYVPEDLLPVYKEKVVPLADIITPNQFEAELLSGRKIHSQEEALRVMDMLHSMGPDTVVITSSDLPSPQGSNYLIVLGSQRRRNPAGSVVMERIRMDIRKVDAVFVGTGDLFAAMLLAWTHKHPNNLKVACEKTVSTLHHVLQRTIQCAKAQAGEGVRPSPMQLELRMVQSKRDIEDPEIVVQATVL	soluble
TALIASGLAPQPFYFYGFLPRQNKERTQAIEKLAAREETWILYESPHRLKETLKAIIKITGNDRKMVLCRELTKRFEEFLRGTVEDALNWATDEEVRGEFCIIIEGNANP	not soluble
TAVEPLALIRADGPTLPARGMHKPALCIIAQGRKEVQLAEERYIYDPLHYLVVSVTLPLAGQVIDASPDAPYLCVRLDIDPAEITQLISDAGPMEVASRRGDRGLYVDRIDASLLDAVLRLIHLLDSPRDIPMLAPLILREIFYRLLRSGQGQRL	not soluble
TDAFFFAGFLPNAAAARKTRLETLRGVPGTLVFYESPKRLAASLRDMAEVLGGERPAALCRELTKKFEETRRDTLAGLAEALAEAPVKGEVVLLVDRARSG	not soluble
TDLDAVRIKVDTVNAKPGDTVRIPVRFSGIPSKGIANCDFVYSYDPNVLEIIEIEPGELIVDPNPTKSFDTAVYPDRKMIVFLFAEDSGTGAYAITEDGVFATIVAKVKSGAPNGLSVIKFVEVGGFANNDLVEQKTQFFDGGVNVG	soluble
TDPDCDRVGIVVKDSSGEYVVLNGNQVGSLLVRYILESLVEENKLPKNNPTIIKTIVTSELGAKIAKAYNVDCLNTLTGFKFIGEKIKAFEESNDRSFIMGYEESYGYLIGTHARDKDGVVSSLMICEMAAYYSSKGMNLYEALIDTYNKFGY	not soluble
TEEPDFTALCQKLKIPDHVRERAWLTWEKVSSVDGVLGGYIQKKKELWGICIFIAAVDLDEMSFTFTELQKNIEISVHKFFNLLKEIDTSTKVDNAMSRLLKKYDVLFALFSKLERTCELIYLTQPSSSISTEINSALVLKVSWITFLLAKGEVLQMEDDLVISFQLMLCVLDYFIKLSPPMLLKEPYKTAVIPINGSPRTPRRGQNRSARIAKQLENDTRIIEVLCKEHECNIDEVKNVYFKNFIPFMNSLGLVTSNGLPEVENLSKRYEEIYLKNKDLDARLFLDHDKTLQTDSIDSFETQR	soluble
TGEKTILKLKRSCLKPELRRIKAIVGLGLSGFTMAITNCTVQIMCNATLQAYGGDLYVGVMTVVNSVREVASLPVSGITQSAQPVLGFNYGAGEYGRVKKA	not soluble
TGFNYFQYNITNSLNASYGPSQEGNQTDFYAGAVQLQQTVVQLDVDRGLEVGLASPLNVAAGALFRADNYQLKAGEEASWAGFENPPWGINQNGGTPAPGAQVFPGFRPEQEVDETRTNIGTYVDLQADLIDPLQVNIAGRFENYSDFGSTVNGKVALRFEPVSQLAFRGTAQTGYRAPNQAQKFFSKVSTTFIDNQPVQTGIFRINSDVGNALGIPDLE	not soluble
TGMSREEVESLIQEVLEVYPEKARKDRNKHLAVNDPAVTQSKKCIISNKKSQPGLMTIRGCAYAGSKGIVWGPIKDMIHISHGPVGCGQYSRAGRRNYYIGTTGVNAFVTMNFTSDFQEKDIVFGGDKKLAKLIDEVETLFPLNKGISVQSECPIGLIGDDIESVSKVKGAELSKTIVPVRCEGFRGVSQSLGHHIANDAVRDWVLGKRDEDTTFASTPYDVAIIGDYNIGGDAWSSRILLEEMGLRCVAQWSGDGSISEIELTPKVKLNLVHCYRSMNYISRHMEEKYGIPWMEYNFFGPTKTIESLRAIAAKFDESIQKKCEEVIAKYKPEWEAVVAKYRPRLEGKRVMLYIGGLRPRHVIGAYEDLGMEVVGTGYEFAHNDDYDRTMKEMGDSTLLYDDVTGYEFEEFVKRIKPDLIGSGIKEKFIFQKMGIPFREMHSWDYSGPYHGFDGFAIFARDMDMTLNNPCWKKLQAPWEASEGAEKVAASA	soluble
THSQLDQLLTGLVDRVAEVDHAVVLSEDGLVVSKSTGFLRDDAERLAATASGLMSLSKGVSMDFRRGPVRQALIEMGKGYLILTAAGPGAHLVVLTRQGADVGVVAYQMNMLVKKIGEHLSAPPRG	soluble
TLDYNIQQQAYNLLGDNKGSVVVLNPKTGEILAMVSKPSYDPNDDALKASWAALNSNPDRPLLNRAVSGLYPPGSTFKTVTAISALENISGIQNETFNDPGQLVFNSTESLRDFGGESFGDIGFKHAYVVSSNVVFGKIGLQLGNNNLRQTAESFYFNKNIPCDGIVIDKSKFPTLKSYEKGNMAQSAIGQASVLATPIQMALVASTVANDGVMMKPHVVNEILSPNGDKIKSIEPESIGNIVSKENAATMKDFMRNVVEDGTGVNAAVEGIQVAGKTGTADHKVNGKDATPHSWFIGFAPYDNPQVAIAVIVEDGGQGGKAAAGIASKVIQTALQK	not soluble
TLTVQARQLLSGIVQQQNDLLRAIEAQQHLLQLTVWGIKQLQARSGGRGGWMEWDREINNYTSLIHSLIEESQNQQEKNEQELLEL	soluble
TPDRHQFPGLANKTYFNFGGQGILPTVALEAITAMYGYLQENGPFSIAANQHIQQLIAQLRQALAETFNVDPNTITITDNVTTGCDIVLWGLDWHQGDEILLTDCEHPGIIAIVQAIAARFGITYRFFPVAATLNQGDAAAVLANHLGPKTRLVILSHLLWNTGQVLPLAEIMAVCRRHQGNYPVRVLVDGAQSAGSLPLDFSRLEVDYYAFTGHAWFAGPAGVGGLYIHGDCLGEINPTYVGWRSITYGAKGEPTGWAEGGKRFEVATSAYPQYAGLLAALQLHQRQGTAEERYQAICQRSEFLWRGLNQLPHVHCLATSAPQAGLVSFTVDSPLGHRAIVQKLEEQRIYLRTIADPDCIRACCHYITDEEEINHLLARLADFGP	soluble
